# Laboratory results taken from patent US20030228306A1.
# Columns and labels:
# [1] = molecular target: CC-chemokine receptor CCR5 (UniProt P51681); assay: cell-based or functional assay
# [2] = molecular target: CC-chemokine receptor CCR5 (UniProt P51681); assay: flow cytometry on mitogen-stimulated PBMC, m.f.i.
# UniProt P51681, sequence (P51681 whole entry, the tested form may be a part): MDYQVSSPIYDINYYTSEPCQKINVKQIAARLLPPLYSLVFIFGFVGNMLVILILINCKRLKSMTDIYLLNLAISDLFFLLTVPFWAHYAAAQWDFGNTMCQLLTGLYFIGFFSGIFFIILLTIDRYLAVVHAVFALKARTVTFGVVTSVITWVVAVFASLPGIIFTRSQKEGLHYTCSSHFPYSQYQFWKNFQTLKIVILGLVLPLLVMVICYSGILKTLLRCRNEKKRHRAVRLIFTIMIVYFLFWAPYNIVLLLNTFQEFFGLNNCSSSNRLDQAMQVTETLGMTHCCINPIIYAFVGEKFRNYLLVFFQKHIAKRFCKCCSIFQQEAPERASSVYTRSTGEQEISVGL
Substance,"IC50, inhibition of JR-FL entry (luciferase entry assay) [1]","IC50, inhibition of fusion between PM1 cells and HeLa-EnvJR-FL+ cells (RET assay) [1]","K (equal to the IC50 value), inhibition of cell-cell fusion, median effect fit (RET assay) [1]",fold difference in m.f.i. against PA9 [2],"IC50 for calcium influx inhibition, ratio against 2D7 [1]"
anti-CCR5 mAb 2D7 (antibody),0.026 µg/mL,1.6 µg/mL,0.36 µg/mL,,
anti-CCR5 monoclonal antibody PA14,0.024 µg/mL,1.7 µg/mL,,7 fold,8 fold
